# Assay results reported in patent US20240409645A1 (DUALYX, published 2024).
# Changes are numbered by the printed parent chain.
# T1: human IL-2Rβ (human, UniProt P14784 27-240, limits assumed)
# T1 construct: Recombinant protein, coated (ELISA) or immobilised on CM5 (SPR); also called hu IL-2R; interleukin 2 receptor β-chain
# T1 sequence: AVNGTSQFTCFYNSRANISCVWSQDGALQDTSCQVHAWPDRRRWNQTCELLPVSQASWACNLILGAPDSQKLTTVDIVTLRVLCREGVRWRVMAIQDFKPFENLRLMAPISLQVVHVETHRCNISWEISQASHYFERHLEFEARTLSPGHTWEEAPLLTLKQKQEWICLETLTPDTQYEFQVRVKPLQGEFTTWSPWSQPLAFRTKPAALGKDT
# T2: human IL-2Rβ (human, UniProt P14784 27-240, limits assumed)
# T2 construct: recombinant protein, coated or immobilised; also called hu IL-2R; IL-2R beta
# T2 sequence: T1 sequence
# B1: FJ1427_P035MP02F11 (VHH)
# VHH: EVQLVESGGGLVQAGGSLRLSCAASGRDFSSYAMGWFRQAPGKEREFVVAITWTKRSTDFPDSVKGRFTISRDNAKNTVYLDMNSLKPEDTAVYYCASARGLPVTPLGDIIYWGEGTLVTVSS
# notes: soluble VHH in periplasmic extract; also called clone nr
# B2: FJ1427 P035MP03F07 (VHH)
# VHH: B1 VHH with E1Q, D28T, A33V, W53G, K55R, S57T, F60W, K76Q, T105P, Y112H
# notes: as for B1
# B3: FJ1427_P035MP02G11 (VHH)
# VHH: B1 VHH with E1Q, V2L
# notes: as for B1
# B4: FJ1427_P035MP03C03 (VHH)
# VHH: QVQLVESGGGLVQPGGSLRLSCAISGGTLDSYGIGWVRQAPGKQREGVSCMSRSDDRTYYADSVKGRFTISKDSAKNTVYLQMTSLKPEDTAVYYCAAVDAYGCSLVQPTTYDFWGLGTQVTVSS
# notes: soluble VHH in periplasmic extract; also called 18-MP03C03; clone nr
# B5: FJ1427_P035MP02F08 (VHH)
# VHH: QVQLVESGGGLVQAGGSLRLSCAASGSIFSLNTMGWFRQAPGKEREFVAAISRSGGSATYGDSVKGRFTISTNNAKTTVYLQMNSLKPDDTAVYSCAASAAVGWTTRWSTIDFDSWGQGTQVTVSS
# notes: as for B1
# B6: FJ1427 P035MP02D10 (VHH)
# VHH: EVQLVESGGGLVQAGGSLRLSCAASGRTFSSDAKAWFRQAPGKEREFVAAITWAGRGTDYADSVKDRFTITRDNAKNMVYLQMSSLKPEDTAVYYCALNPTGVIGPGFRNSNRYDYWGQGTQVTVAS
# notes: as for B1
# B7: FJ1427_P035MP03F08 (VHH)
# VHH: EVQLVESGGGLVQTGGSLRLSCAASGGTFSRDAMAWFRQVPGKEREFVALISWSGATTNYADSVKGRFAISRDNGKNTVYLQMNRLKPADTAIYYCAADRRPMGSRSYFEPTEYDDWGQGTQVTVSS
# notes: soluble VHH in periplasmic extract; also called 19-MP03F08; clone nr
# B8: FJ1427 P035MP02C08 (VHH)
# VHH: EVQLVESGGGLVQAGGSLRLSCAASGSTFSRQPMYWFRQAPGKEREFVAAITWSGRGTLYADSVEGRFTISRDNAKNTVYLQMNSLRPDDTAAYYCAAGPYGDAAYRHGRIDSWGQGTQVTVSS
# notes: as for B1
# B9: FJ1427 P035MP02D02 (VHH)
# VHH: QVQLVESGGGLVQVGGSLSVSCAASGRSFDSITMAYFRQAPGNEREFIAGINFSGSRTAYGDSVKGRFTISRDNAKNTVFLQMNSLNPEDTAVYYCAASPRGFYGPGHALYDYWGQGTQVTVSS
# notes: as for B1
# B10: FJ1427_P035MP02C09 (VHH)
# VHH: QVQLQESGGGLVQAGGSLRLSCVASGSVSSINGMAWYRQGADNQRVLVAAISRVGNTAYGDSVKGRFTISRQNARNTVYLQMNSLKPEDTAVYYCNADSWGGDDYWGQGTQVTVSS
# notes: soluble VHH in periplasmic extract; also called 17-MP02C09; clone nr
# B11: FJ1427_P035MP06F05 (VHH)
# VHH: QVQLVESGGGLVQTGDSLRLSCAASGRSLDTTYIAWFRQAPGKERDFLAYISPRFSHTWYADSVKGRFTISRNIAKRTVDLEMNSLEPEDTAVYYCAAREHSGSTAWEHYDHWGQGTQVTVSS
# notes: soluble VHH in periplasmic extract; also called 25-MP06F05; clone nr
# B12: FJ1427_P035MP03F12 (VHH)
# VHH: EVQLVESGGGLVQAGGSLRLSCAASGSIFSINAMAWFRQVPGMERELVAAISRDGGASVYRDSVKGRFTISRDNSKNTVYLQMNTLKPEDTAIYVCAATRAIGWTARWITTDFDFWGQGTQVTVSS
# notes: soluble VHH in periplasmic extract; also called 22-MP03F12; clone nr
# B13: FJ1427_P035MP03F10 (VHH)
# VHH: B1 VHH
# notes: soluble VHH in periplasmic extract; also called 20-MP03F10; clone nr; 270
# B14: FJ1427 P035MP02E11 (VHH)
# VHH: QVQLQESGGGLVQAGGSLRLSCAASGRTFSNYVMAWFRQAPGKEREFVGAITQTGRGTFYADSVEGRFTISRINDKNTVYLQMNSLKPEDTAVYYCSAPRSGRAGTRNQMDYEYWGQGTQVTVSS
# notes: as for B1
# B15: FJ1427_P035MP02H01 (VHH)
# VHH: QVQLVESGGGLVQPGGSLGLSCAASGFTFDNYAMSWVRQAPGKGLEWVSSITGAGRGTHYADSVKGRFTISRDNAKNTLYLQMNSLKPEDTAVYYCAKYSSSTYYPPTPARGTDYRGPGTQVTVSS
# notes: as for B1
# B16: FJ1427_P035MP02A01 (VHH)
# VHH: QVQLVESGGGLVQTGGSLRLSCVVSGSHFISDVMGWYRQVPGKQRELVADMADGGSAKYGDSVKGRFTILRDSVKNTVYLQMSSLNPEDTGVYYCKAGLWITGRHSDYWGQGTQVTVSS
# notes: soluble VHH in periplasmic extract; also called clone nr; 97
# B17: FJ1427_P035MP02G01 (VHH)
# VHH: B16 VHH with V23A, H28R, G60A, T68S, V74A, N86K, V92I, T102A
# notes: as for B1
# B18: FJ1427_P035MP02B02 (VHH)
# VHH: B16 VHH with Q1E, G10T, L70V, T102K, S118T
# notes: as for B1
# B19: FJ1427 P035MP02G02 (VHH)
# VHH: B16 VHH with T14P, V23A, V24A, A57V, Y79T, S106F, T113I, S118T
# notes: as for B1
# B20: FJ1427 P035MP06E05 (VHH)
# VHH: QVQLVESGGELVQGGASLRLSCAASGRTFSNANMAWFRQAPEKEREFVALITWSSGSTLYADSVKGRFTISRDNARKMVYLQMNSLKPEDTAVYYCAADGPPYSGTYYRYDTYDYWGQGTQVTVSS
# notes: soluble VHH in periplasmic extract; also called 24-MP06E05; clone nr; 517
# B21: FJ1427 P035MP02A10 (VHH)
# VHH: QLQLVESGGGLVQTGTSLRLSCAASGHTSRINAMGWFRQFPGKEREFVAAISRNGGSTVYVDSVKGRFTISRDNAKSTVYLQMNSLKPEDTAVYYCTATDAVGWTTRWMTADFGFWGQGTQVTVSS
# notes: as for B1
# B22: FJ1427_P035MP02H08 (VHH)
# VHH: EVQLVESGGGLVQAGDSLRISCAASGRIFSNYAMGWFRQAPGKETEFVAGITHLTSTTHYADSVKGRFTISRDNAKNTMHLQMNNLKPEDTALYYCAADRNIKITADWSYWGQGTQVTVAS
# notes: soluble VHH in periplasmic extract; also called clone nr; 160
# B23: FJ1427 P035MP02D11 (VHH)
# VHH: B22 VHH with E1Q, V5Q
# notes: soluble VHH in periplasmic extract; also called clone nr; 180
# B24: FJ1427_P035MP06F03 (VHH)
# VHH: QVQLVESGGGLVQAGGSLRLSCAVSGDVFVRYTMAWFRQAPGKEREFVASVTDSGRTTDYVHSVKGRFTVSRDNAKNTVYLQMNNLKPEDTAVYYCAANTDYFQIKSLDANTWGQGTQVTVSS
# notes: soluble VHH in periplasmic extract; also called 23-MP06F03; clone nr; 502
# Target: T1, human IL-2Rβ
# Assay: P.E. binding ELISA on coated protein
# Experimental: (§1) In a binding ELISA, human or mouse IL-2Rα, IL-2Rβ and IL-2Rγ proteins were coated directly on maxisorp microtiter plates overnight at 4° C. Free binding sites were blocked using 4% Marvel in PBS for 1 hour. Next, 1:5 dilution of P.E. in 1% Marvel/PBS were added to wells and incubated for 1 hour. […] Binding specificity was determined based on O.D. at 450 nm values compared to negative controls.
row,P.E. binding ELISA OD [OD450 nm],Binder
1,0.33,B1
2,0.156,B2
3,0.429,B3

# Target: T1, human IL-2Rβ
# Assay: SPR (Biacore), P.E. off-rate ranking
row,koff [s⁻¹],Binder
1,0.000686,B1
2,0.00126,B2
3,0.000708,B3

# Target: T2, human IL-2Rβ
# Assay: SPR, P.E. off-rate
# Experimental: SPR was performed to determine dissociation rates using Biacore 3000 instrument (GE Healthcare). Briefly, human and mouse IL-2R proteins were immobilized on carboxylmethyl dextran sensor chip (CM5) at approximately 2500 RUs using amine coupling in acetate buffer (GE Healthcare). The VHH-containing P.E. were loaded with a flow rate of 30 uL/min and the off-rates were measured over a 120s period.
row,koff [s⁻¹],Binder
1,0.000594,B4
2,0.00153,B5
3,0.00109,B6
4,0.000296,B7
5,0.00333,B8
6,0.000529,B9
7,0.000848,B10
8,0.000836,B11
9,0.000419,B12
10,0.000595,B13
11,0.00188,B14
12,0.00106,B15
13,0.00023,B16
14,0.000368,B17
15,0.000164,B18
16,0.000112,B19
17,0.000471,B20
18,0.00226,B21
19,0.000731,B22
20,0.000833,B23
21,0.00105,B24

# Target: T2, human IL-2Rβ
# Assay: P.E. ELISA, coated protein
# Experimental: as §1
row,P.E. binding ELISA OD [OD450 nm],Binder
1,0.405,B4
2,0.614,B5
3,0.557,B6
4,0.245,B7
5,0.254,B8
6,0.831,B9
7,1.21,B10
8,0.159,B11
9,0.781,B12
10,0.497,B13
11,0.529,B14
12,0.487,B15
13,0.311,B16
14,0.169,B17
15,0.343,B18
16,0.177,B19
17,0.355,B20
18,0.359,B21
19,0.885,B22
20,0.463,B23
21,0.54,B24
